Measured values reported in the DeepSol protein solubility set.

assay: soluble on expression in E. coli; label from the status in PepcDB or PDB records

Row | Sequence | soluble on expression in E. coli
1 | GPGSMHPGLPRAFPDTEWQTVADIFRRRAPVSFLAPNSSASATADPAAAAEAWVQQEIGYYEANYTTVEDLNVCVTTFNVGCKKPVLPLTSLACLTSGGGGADGAPVRPTDLIVVGLQEVDMSATALFKQETEASAPWVAGLNAAIGASRCSSTAASSSSGAGASPYYAFPPKQLVGLLLCVFIRRPLLSAVSESSTATVATGALGSMGNKGAVGFHLVLHRTSICIITAHLAAGQSNVSKRNEDINTILKSMDFNAARRAEMQISASASMPMDESVFLELHPRDHDIIIVAGDLNYRLRLPYETAVHLANAGQFSELLQYDELATEMKSPHTPWLNFINFTPTHMPTYRFDIGTDAYDTSEKRRVPSYTDRICMWSRRKSMESRVRLDRLSALMEVRSSDHKPVQALARIPISVEVPAQKAQVISSLREKVAAVGLAQASSAKISLSTSKVNFQAQSFHHCGAQETVTVQNSGDCVAVVRVVRQREGDYSEGTWLRATPLELAILPGESQDVVIETAIDPRCMTWLAAWSPYQGRGRVSLTSVLLFCCRNGPVQAVECQCLLSPSVFGNGLDSIALLQDKPCVEAYAQKADFEEVVRQVRPHVPKELWYLAHVIAQHPREGGLFTRSTDKDVCCRIMELLDTKNAPLPAGTDVHCAAECLLAFLKNLLEPVVPYAQYTTALAAGRAKGKAPLQFLRQLPTMHANVWIYVMSLLNYLLRPVHSCDNELDANFLAHIFSAVLIVRPTNAQGAIPARLQQGGGVDQQVRQQLQQESDDALALVAYFLSTPPSMLAGVE | not soluble
2 | MKKVQTPLFQGITENEWNEMQNCSCMRQQSFEKNELIFRMGESVREIGIVLTGSVNIENVDLWGNKSLLSNISAGQVFAETYAFCQEPLMVNAVAAEYTNLLFLNLETLMQPRYKDTLWTDKIMQNLLRISIYKNLILSNRIFCTTPKTIRGRLLIYLSSQASKAESTVFQISFNRQELADYLNLDRSALSKELGKMRDEGILEFRKNQFVLHQLPE | not soluble
3 | MRLDGKTALITGSARGIGRAFAEAYVREGARVAIADINLEAARATAAEIGPAACAIALDVTDQASIDRCVAELLDRWGSIDILVNNAALFDLAPIVEITRESYDRLFAINVSGTLFMMQAVARAMIAGGRGGKIINMASQAGRRGEALVGVYCATKAAVISLTQSAGLNLIRHGINVNAIAPGVVDGEHWDGVDAKFADYENLPRGEKKRQVGAAVPFGRMGRAEDLTGMAIFLATPEADYIVAQTYNVDGGNWMS | soluble
4 | MGSDKIHHHHHHMNTLLKQLKPYPFARLHEAMQGISAPEGMEAVPLHIGEPKHPTPKVITDALTASLHELEKYPLTAGLPELRQACANWLKRRYDGLTVDADNEILPVLGSREALFSFVQTVLNPVSDGIKPAIVSPNPFYQIYEGATLLGGGEIHFANCPAPSFNPDWRSISEEVWKRTKLVFVCSPNNPSGSVLDLDGWKEVFDLQDKYGFIIASDECYSEIYFDGNKPLGCLQAAAQLGRSRQKLLMFTSLSKRSNVPGLRSGFVAGDAELLKNFLLYRTYHGSAMSIPVQRASIAAWDDEQHVIDNRRLYQEKFERVIPILQQVFDVKLPDASFYIWLKVPDGDDLAFARNLWQKAAIQVLPGRFLARDTEQGNPGEGYVRIALVADVATCVKAAEDIVSLYR | not soluble
5 | MTDSRTHLRLQIRQRRQSLSAFEQQTASQQLIHTFASLPEVTAAQRIALYLANDGELNTQPLIEWLWQQGKQVYLPVLHPFAKGHLLFLHYHTHTPMNKNRYGIAEPKLDQRLICPVRELDIIGTPLVAFDQSGQRLGMGGGYYDRTLAPWFKTQQGAMPIGLAHDCQQVEQLPTASWDIPLRKIVTPSKVWQWLEHHHHHH | not soluble
6 | KRATQFTASILSLYNSEQMLQKTDPMSVISSAMVAATLDLPIDKNLGYAWIVPYGGKAQFQLGYKGYIQLALRTGQYKSINCIPIHEGELQKWNPLTEEIEIDFEKRESDAVIGYAAYFELINGFRKTVYWTKAQVEKHKKKFSKSDFGWKNDWDAMALKTVLKAVLSKWGILSVEMQKAVIEEDETRERIDITNEADSSEIIDSE | soluble
7 | MGSDKIHHHHHHMSTYKINNEQLTLIKEMPFKLEKEIQNIVERNLQTLLGLDFIKTEFSIGSFRIDSLAFDSEKKSFVIIEYKRDKNFSVIDQGYAYLSLMLNNKAEFILEYNESKSGALKRNDVDWSQSKVLFVSPNFTTYQKEAINFKDLPIELWEIKRFTNDTLSFGQIVNRSSKESIKTVSNSEAITTVSKEIKVYSEQDHLENIKDDFLNIYTEIKEFLLSFGEDITIYPKKKTIGFKIGGKVFCDIVMQNKGIRLFLNAKKGTLKDPEGITRDVSEVGHWGNGAYEVRFPLKNDAEIDFVFNLLRQTINKNKE | not soluble
8 | MLKREMNIADYDAELWQAMEQEKVRQEEHIELIASENYTSPRVMQAQGSQLTNKYAEGYPGKRYYGGCEYVDVVEQLAIDRAKELFGADYANVQPHSGSQANFAVYTALLQPGDTVLGMNLAQGGHLTHGSPVNFSGKLYNIVPYGIDESGKIDYDEMAKLAKEHKPKMIIGGFSAYSGVVDWAKMREIADSIGAYLFVDMAHVAGLIAAGVYPNPVPHAHVVTTTTHKTLAGPRGGLILAKGGDEELYKKLNSAVFPSAQGGPLMHVIAGKAVALKEAMEPEFKVYQQQVAKNAKAMVEVFLNRGYKVVSGGTENHLFLLDLVDKNLTGKEADAALGRANITVNKNSVPNDPKSPFVTSGIRIGSPAVTRRGFKEAEVKELAGWMCDVLDNINDEATIERVKAKVLDICARFPVYA | not soluble
9 | WSYEHLHLTNRIKLLYAPTFRDNELGMAKLHLDIAEMKQALGNEYQLILKLHPSISNDLEKLDDDFVIYVDKETPIETLLPVVDILITDYSSIPFEFALLQKPMIFFTYDLTEYNNARGLSDGFLETIPGPHVFTTTELIEVIQNNTFDLEKVRLFAEKWNKYSDGFSSERFVSFLKE | not soluble
10 | MSLANIQEIAKLAGVSSATVSRVINNRDYVSEETRKRVQTIIDKLDYVPNINAVSLKKGATKLIGMVIPSFTDSLNVFLKSFTMMAQEHGYNVTLFMTRIDPDKELEALEMLRQKQIDALVLVIRSNDWKTIEHYTKYGPIVTWQRVESEKIPSVFMNQYDGYTLALEHLYAKGYRKFVNVYGNTTGLNTQSRMLAFKDFCARYELDPHEFRQFYGQGSRQDGEKIAHWWSETEHKPDAFLTPNDYFAAGLLTEARRLGYSVPEDFAICGFDNMEVAHLLDITTIHYPVNLQAENAFTLIMNQLFGSNLPLLDLDFHLVERKTTEGHHHHHH | soluble
11 | SDFANLSSTNKELSPQYNWVACGILEGGLKAAGVLEEGQYNRELAEAIAAKGEGFWTTQFPQIGDWNEDQAAALADRAQTCGLVKADTYLSELSSNFSS | soluble
12 | GSHMSQSFGRVLTIVHSDCALLERDGNISLLSLPVAERWLRQAQLTPGEAPVCAQPLLIPLRLKVSAEEKSALEKAQSALAELGIDFQSDAQHVTIRAVPLPLRQQNLQILIPELIGYLAKQSVFEPGNIAQWIARNLMSEHAQWSMAQAITLLADVERLCPQLVKTPPGGLLQSVDLHPAIKALKDE | soluble
13 | MKVPEAAISRLITYLRILEELEAQGVHRTSSEQLGELAQVTAFQVRKDLSYFGSYGTRGVGYTVPVLKRELRHILGLNRKWGLCIVGMGRLGSALADYPGFGESFELRGFFDVDPEKVGRPVRGGVIEHVDLLPQRVPGRIEIALLTVPREAAQKAADLLVAAGIKGILNFAPVVLEVPKEVAVENVDFLAGLTRLSFAILNPKWREEMMG | soluble
14 | MGQRYKRMSSTDTNEYMSDNLAKAISNPLFPALDSMLRAGRHISTEDLDNHALLSDFELELSSFYQRYNTELVKAPEGFFYLRPRSTSLIGRSVLSELDMLVGKVLCFLYLSPERLAHEGIFTNQELYDELLALADEKKLMKLVTNRATGSDLDKEKLFEKVRTSLRRLRRLGMIINIGETGKFSISEAVFRFGADVRVGDDIREAQLRLIRDGEAVVHTKEPSQGSLLSEEDQEEQAQEEMTEEGEALEHHHHHH | soluble
15 | MDLPDPYLPGAISLFEQLDKKLLVVLRDGRKLIGFLRSIDQFANLILEDVVERTFVEKYFCETGQGFMLIRGENVELAGEIDDTIETGLTQVSPEEFRRLEDEYIAKNPPKFLKRQAEKTEEHDA | not soluble
16 | GPGSMPASASTRTVGDSSKNASTSSVTNAVKDPNVTLSRADVEAAFAFFDLHNHKCLKPATLKERLSAFYPNMTSSEYKFLLDEASGAPFTVDTLWNIIDNFNTTRTAMPPAVAGSLRFDPIREAFRIYDPQGSGSVDVVVLADIMKTIGFGDLSPNELTLLIRPADFDNDGKISLEDFMNFLSNHR | soluble
17 | MGSDKIHHHHHHMPRPRRTQISLEDTPFYHCCSRVVRRAFLCGDDSYSGKNYDHRRAWVESLLFELEAVFAIDVVAFAVMSNHLHVVLRIDVETANRWSDREVLEQWHKLFKGDELTQKFAKGGLVEADEVNRLRHSIAIYRSRLCDISWFMRCLNEPIARQANQEDNCTGRFWEGRFKSQALLDEAAVLACMTYVDLNPIRAQMADTLEQSAHTSIQLRIQAALKDEQPKNLLPFIGNERDNQPIGITFSLIDYLQLVDDTGRIIRNDKLGAITENSAKLLTRLNIHHDNWLKLTTEFGKLFHGPVGTLQELTDYCEHLEKRRRHFAKCCQHLNAG | not soluble
18 | MGSDKIHHHHHHMTPKRFAFVIADLYGGGAEKSLLYTAAGLHQRGHTVKVFILRDRIEQPIPDGVTVENLALINRFSKMFSTPLVEKWQAARIARTLDDFAADVVLSCSCDKITRHLRHPNLWFWIKSDISAKFSDPDQRAKAFAKVHRFYTGRNVVAVSQGVKDNLLDVIGLRPAEIRAIYNPYEREPFLRLAEEPAPVPEGEYLINVGTYEPRKRHDRLLRAYKASGVTTPLVLLGKGKGDEEARLRKMIEDMGLAERVILPGYQTNPYPFIRHAKALILTSDAEGLPRALIESLLLGTPVVSVDCPSGPREILAGELADFLVPREDEAALADAIARMDAAPITVTEAHYRPFLKETVLPQFEALARSA | not soluble
19 | MSLVHQLLAQMENGYMKIIKENLVGIYLHGSYAFGTYCHSVSDLDVLIVVYEKLTIDEKKQLLDYTINILDKWAPKKGIEFHVLQLKDTINLSYPIPFDLHFSPIHRSRYLTNKNKYIEDMMGYDEDLVAHLMITKLYGKVLVGKPIDSVFGWIDQKKYFESIVADVKEAKKEIVQQPMYVILNMCRVMAFKQENKILSKRAGGEWGLVHFPTNHHSLIQLALKEYRGETVLLEQYNDSELNDFADIMLSLLFKEGHHHHHH | not soluble
20 | MGSDKIHHHHHHMAQIIVVTSGKGGVGKTTSSAAIATGLALKGKKTVVIDFDIGLRNLDLIMGCERRVVYDFVNVINGEANLNQALIKDKRCDKLFILPASQTRDKDALTKEGVGRVLENLAKDFDYIVCDSPAGIEQGAMMALYFADIAIVTTNPEVSSVRDSDRILGMLQSRSRRAELSLEPIKEYLLLTRYSPARVKTGEMLSVEDVKEILAIELLGVIPESQSVLKASNSGVPVIIDQESDAGLAYGDTVARLLGDDVPVRFITEEKKGFLKRIFGS | not soluble
21 | GSMDCEVNNGSSLRDECITNLLVFGFLQSCSDNSFRRELDALGHELPVLAPQWEGYDELQTDGNRSSHSRLGRIEADSESQEDIIRNIARHLAQVGDSMDRSIPPGLVNGLALQLRNTSRSEEDRNRDLATALEQLLQAYPRDMEKEKTMLVLALLLAKKVASHTPSLLRDVFHTTVNFINQNLRTYVRSLARNGMD | soluble
